Source: US20200283521A1
pKd: −log10 of the molar value.

Molecular target: human FcRn (human) (UniProt P55899)
Assay: SPR steady state at pH 6, FcRn coupled

Sequence of human FcRn (human) (P55899 24-297 limits assumed, chain 1 of 2): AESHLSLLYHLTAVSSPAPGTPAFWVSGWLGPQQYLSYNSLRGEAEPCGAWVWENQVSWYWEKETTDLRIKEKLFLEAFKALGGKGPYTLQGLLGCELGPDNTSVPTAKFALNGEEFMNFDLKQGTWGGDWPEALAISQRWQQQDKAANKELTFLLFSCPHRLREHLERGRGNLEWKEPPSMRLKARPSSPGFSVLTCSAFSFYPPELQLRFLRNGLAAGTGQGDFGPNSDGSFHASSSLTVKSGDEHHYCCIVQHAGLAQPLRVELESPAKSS
Sequence of human FcRn (human) (chain, as listed by the source limits assumed, chain 2 of 2): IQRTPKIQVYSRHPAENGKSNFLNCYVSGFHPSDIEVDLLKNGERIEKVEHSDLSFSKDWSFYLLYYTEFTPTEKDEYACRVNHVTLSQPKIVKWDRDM

Substance | pKd
isotype control human IgG1 (antibody) | 5.93
isotype control human IgG4 antibody | 5.59
